In patent publication US20110212105A1:

Molecular target: A2MR receptor on Vero cells (monkey (Vero cell line))
Test: cell-based or functional assay

RAPR13 (recombinant human LRPAP1 / receptor-associated protein with an N-terminal tag of 6 histidines and a thrombin cleavage site), sequence (P30533 other isoform, or with tags, fused parts or gaps limits assumed): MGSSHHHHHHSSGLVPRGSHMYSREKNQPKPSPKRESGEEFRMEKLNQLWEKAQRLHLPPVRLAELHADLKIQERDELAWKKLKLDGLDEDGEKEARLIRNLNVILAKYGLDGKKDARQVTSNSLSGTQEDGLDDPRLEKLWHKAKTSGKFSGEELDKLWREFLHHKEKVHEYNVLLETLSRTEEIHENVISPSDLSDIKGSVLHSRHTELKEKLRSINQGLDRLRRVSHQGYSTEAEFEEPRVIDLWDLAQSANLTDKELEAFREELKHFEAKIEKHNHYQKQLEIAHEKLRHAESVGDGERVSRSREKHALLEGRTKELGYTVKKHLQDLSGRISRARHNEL

Question: What does the source list for “RAPR13 (recombinant human LRPAP1 / receptor-associated protein with an N-terminal tag of 6 histidines and a thrombin cleavage site) (from UniProt P30533 35-357) (ligand)”?
Answer: inhibition of the infection of Vero cells by DV1 (West Pac 74), lytic plaque assay, RAPR13 at 100 µg/mL: 65%; inhibition of the infection of Vero cells by DV2 (S16803), lytic plaque assay, RAPR13 at 100 µg/mL: 76%; inhibition of the infection of Vero cells by DV3 (CH53489), lytic plaque assay, RAPR13 at 100 µg/mL: 60%; inhibition of the infection of Vero cells by DV4 (TVP360), lytic plaque assay, RAPR13 at 100 µg/mL: 75%
